The labels stand for the following.
B1: Homeobox protein cut-like 1, residues 548 to 629; numbered along this chain, P39880 (parent)
chain: GEEMDTAEIARQVKEQLIKHNIGQRIFGHYVLGLSQGSVSEILARPKPWNKLTVRGKEPFHKMKQFLSDEQNILALRSIQGR

± gives the uncertainty stated by the source.

Variants of B1 are the subject of this series. The experiment in a line: abundance fitness (aPCA) (normalised: wild type 0, dead -1); higher = more abundant; growth selection in yeast, the domain comes from the species named. The following applies: Homo sapiens.
Turning to GEEMDTAEIARQVKEQLIKHNIGQRIFGHYVLGLSQGSVSEILARPKPWNKLTVRGVEPFHKMKQFLSDEQNILALRSIQGR [K57V], the abundance fitness is -0.455 ± 0.034.

With GEEMDTAEIARQVKEQLIKHNIGQRIFGHYVLGLSQGSVSEILARPKPWNKLTVRGFEPFHKMKQFLSDEQNILALRSIQGR [K57F], the abundance fitness was -0.742 ± 0.18.

GEEMDTAEIARQVKEQLIKHNIGQRIFGHYVLGLSQGSVSEILARPKPWNKLTVRGSEPFHKMKQFLSDEQNILALRSIQGR [K57S]: the abundance fitness is -0.334 ± 0.035.

On to GEEMDTAEIARQVKEQLIKHNIGQRIFGHYVLGLSQGSVSEILARPKPWNKLTVRGHEPFHKMKQFLSDEQNILALRSIQGR [K57H], for which the abundance fitness was -0.426 ± 0.095.

Regarding GEEMDTAEIARQVKEQLIKHNIGQRIFGHYVLGLSQGSVSEILARPKPWNKLTVRGLEPFHKMKQFLSDEQNILALRSIQGR [K57L], the abundance fitness was -0.288 ± 0.034.

Regarding GEEMDTAEIARQVKEQLIKHNIGQRIFGHYVLGLSQGSVSEILARPKPWNKLTVRGIEPFHKMKQFLSDEQNILALRSIQGR [K57I], the abundance fitness was -0.284 ± 0.082.

Turning to GEEMDTAEIARQVKEQLIKHNIGQRIFGHYVLGLSQGSVSEILARPKPWNKLTVRGGEPFHKMKQFLSDEQNILALRSIQGR [K57G], the abundance fitness is -0.525 ± 0.028.

For the variant GEEMDTAEIARQVKEQLIKHNIGQRIFGHYVLGLSQGSVSEILARPKPWNKLTVRGPEPFHKMKQFLSDEQNILALRSIQGR [K57P], the abundance fitness is -0.663 ± 0.07.

In the case of GEEMDTAEIARQVKEQLIKHNIGQRIFGHYVLGLSQGSVSEILARPKPWNKLTVRGYEPFHKMKQFLSDEQNILALRSIQGR [K57Y], the abundance fitness is -0.528 ± 0.1.

On to GEEMDTAEIARQVKEQLIKHNIGQRIFGHYVLGLSQGSVSEILARPKPWNKLTVRGWEPFHKMKQFLSDEQNILALRSIQGR [K57W], for which the abundance fitness is -0.526 ± 0.04.

Turning to GEEMDTAEIARQVKEQLIKHNIGQRIFGHYVLGLSQGSVSEILARPKPWNKLTVRGQEPFHKMKQFLSDEQNILALRSIQGR [K57Q], the abundance fitness stood at 0.057 ± 0.036.

Consider GEEMDTAEIARQVKEQLIKHNIGQRIFGHYVLGLSQGSVSEILARPKPWNKLTVRGCEPFHKMKQFLSDEQNILALRSIQGR [K57C], for which the abundance fitness is -0.393 ± 0.066.

With GEEMDTAEIARQVKEQLIKHNIGQRIFGHYVLGLSQGSVSEILARPKPWNKLTVRGNEPFHKMKQFLSDEQNILALRSIQGR [K57N], the abundance fitness is -0.601 ± 0.095.

Regarding GEEMDTAEIARQVKEQLIKHNIGQRIFGHYVLGLSQGSVSEILARPKPWNKLTVRGREPFHKMKQFLSDEQNILALRSIQGR [K57R], the abundance fitness came out at 0.013 ± 0.023.

With GEEMDTAEIARQVKEQLIKHNIGQRIFGHYVLGLSQGSVSEILARPKPWNKLTVRGEEPFHKMKQFLSDEQNILALRSIQGR [K57E], the abundance fitness is -0.476 ± 0.036.

Turning to GEEMDTAEIARQVKEQLIKHNIGQRIFGHYVLGLSQGSVSEILARPKPWNKLTVRGTEPFHKMKQFLSDEQNILALRSIQGR [K57T], the abundance fitness was -0.408 ± 0.042.

For GEEMDTAEIARQVKEQLIKHNIGQRIFGHYVLGLSQGSVSEILARPKPWNKLTVRGKESFHKMKQFLSDEQNILALRSIQGR [P59S], the abundance fitness amounted to 0.076 ± 0.036.

GEEMDTAEIARQVKEQLIKHNIGQRIFGHYVLGLSQGSVSEILARPKPWNKLTVRGKEGFHKMKQFLSDEQNILALRSIQGR [P59G]: the abundance fitness is -0.024 ± 0.024.

As for GEEMDTAEIARQVKEQLIKHNIGQRIFGHYVLGLSQGSVSEILARPKPWNKLTVRGKELFHKMKQFLSDEQNILALRSIQGR [P59L], the abundance fitness came out at 0.133 ± 0.035.

Take GEEMDTAEIARQVKEQLIKHNIGQRIFGHYVLGLSQGSVSEILARPKPWNKLTVRGKETFHKMKQFLSDEQNILALRSIQGR [P59T]: the abundance fitness turned out to be 0.088 ± 0.041.

For the variant GEEMDTAEIARQVKEQLIKHNIGQRIFGHYVLGLSQGSVSEILARPKPWNKLTVRGKEEFHKMKQFLSDEQNILALRSIQGR [P59E], the abundance fitness is 0.101 ± 0.03.

Take GEEMDTAEIARQVKEQLIKHNIGQRIFGHYVLGLSQGSVSEILARPKPWNKLTVRGKERFHKMKQFLSDEQNILALRSIQGR [P59R]: the abundance fitness came to 0.023 ± 0.025.

As to GEEMDTAEIARQVKEQLIKHNIGQRIFGHYVLGLSQGSVSEILARPKPWNKLTVRGKEWFHKMKQFLSDEQNILALRSIQGR [P59W], the abundance fitness was found to be 0.077 ± 0.032.

As for GEEMDTAEIARQVKEQLIKHNIGQRIFGHYVLGLSQGSVSEILARPKPWNKLTVRGKEAFHKMKQFLSDEQNILALRSIQGR [P59A], the abundance fitness is 0.091 ± 0.031.

As for GEEMDTAEIARQVKEQLIKHNIGQRIFGHYVLGLSQGSVSEILARPKPWNKLTVRGKEDFHKMKQFLSDEQNILALRSIQGR [P59D], the abundance fitness amounted to 0.047 ± 0.051.

In the case of GEEMDTAEIARQVKEQLIKHNIGQRIFGHYVLGLSQGSVSEILARPKPWNKLTVRGKEQFHKMKQFLSDEQNILALRSIQGR [P59Q], the abundance fitness amounted to 0.078 ± 0.043.

Take GEEMDTAEIARQVKEQLIKHNIGQRIFGHYVLGLSQGSVSEILARPKPWNKLTVRGKEFFHKMKQFLSDEQNILALRSIQGR [P59F]: the abundance fitness was 0.052 ± 0.068.

Consider GEEMDTAEIARQVKEQLIKHNIGQRIFGHYVLGLSQGSVSEILARPKPWNKLTVRGKEKFHKMKQFLSDEQNILALRSIQGR [P59K], for which the abundance fitness was -0.034 ± 0.037.

On to GEEMDTAEIARQVKEQLIKHNIGQRIFGHYVLGLSQGSVSEILARPKPWNKLTVRGKENFHKMKQFLSDEQNILALRSIQGR [P59N], for which the abundance fitness came out at 0.113 ± 0.084.

With GEEMDTAEIARQVKEQLIKHNIGQRIFGHYVLGLSQGSVSEILARPKPWNKLTVRGKEYFHKMKQFLSDEQNILALRSIQGR [P59Y], the abundance fitness worked out at 0.025 ± 0.068.

With GEEMDTAEIARQVKEQLIKHNIGQRIFGHYVLGLSQGSVSEILARPKPWNKLTVRGKEMFHKMKQFLSDEQNILALRSIQGR [P59M], the abundance fitness worked out at 0.078 ± 0.04.

Take GEEMDTAEIARQVKEQLIKHNIGQRIFGHYVLGLSQGSVSEILARPKPWNKLTVRGKEIFHKMKQFLSDEQNILALRSIQGR [P59I]: the abundance fitness was found to be 0.099 ± 0.057.

On to GEEMDTAEIARQVKEQLIKHNIGQRIFGHYVLGLSQGSVSEILARPKPWNKLTVRGKECFHKMKQFLSDEQNILALRSIQGR [P59C], for which the abundance fitness turned out to be 0.1 ± 0.058.

Regarding GEEMDTAEIARQVKEQLIKHNIGQRIFGHYVLGLSQGSVSEILARPKPWNKLTVRGKEHFHKMKQFLSDEQNILALRSIQGR [P59H], the abundance fitness turned out to be 0.025 ± 0.066.
